Where no end group is shown, it is not given here. The star is where a group is joined. Biotin = O=C1N[C@H]2[C@H](CS[C@H]2CCCCC(=O)*)N1
T1: Peptide A (human PAR-2), unbiotinylated (Human)
T1 construct: also called Peptide A No Biotin
T1 peptide: GTNRSSKGRSLIGKVDGT

T2: Peptide A (human PAR-2), N-terminal biotinylated (Human, N-terminal biotin via G4S linker)
T2 construct: also called Peptide A N-Term
T2 peptide: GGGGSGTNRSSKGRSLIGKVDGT

T3: Peptide B (human PAR-2), unbiotinylated (Human)
T3 construct: also called Peptide B No Biotin
T3 peptide: SLIGKVDGTSHVTG

T4: Peptide B (human PAR-2), N-terminal biotinylated (Human)
T4 construct: also called Peptide B N-Term
T4 peptide: Biotin-GGGGSSLIGKVDGTSHVTG

T5: Peptide B (human PAR-2), C-terminal biotinylated (Human, not fully specified)
T5 construct: also called Peptide B C-Term
T5 peptide: SLIGKVDGTSHVTGGGGGS-biotin

T6: Peptide C (human PAR-2), N-terminal biotinylated (Human)
T6 construct: also called Peptide C N-Term
T6 peptide: Biotin-GGGGSSLIGKV

T7: Peptide C (human PAR-2), C-terminal biotinylated (Human)
T7 construct: also called Peptide C C-Term
T7 peptide: SLIGKVGGGGS-biotin

B1: H2M588N (antibody, V domains shown)
VH: EVQLLESGGGLVQPGGSLRLSCAASGFTFSSYAMTWVRQAPGKGLYWVSAISGGRGSAYYADSVKGRFTISRDNSKNTLYLQMNSLRAEDTAVYYCAKEGDSGYDLAYWGRGTLVTVSS
VL: DIQMTQSPSSLSASVGDRVTITCRARQGISNNLAWLQQKPGKAPKSLIYAASSLQSGIPSKFSGSGSGTYFTLTISSLQPEDFATYYCQQYKSSPLTFGGGTKVEIK
notes: chimeric: human variable, mouse constant domains
B2: H2M618N (antibody, V domains shown)
VH: EVQLLESGGGLVQPGGSLRLSCAASGFTFRSYTMTWVRQAPGKGLDWVSGITDSGAGTYYGDSVKGRFTISRDNSKNTLYLQMNSLRAEDTAVYYCVKEGDSGYDLDYWGQGTLVTVSS
VL: DIQMTQSPSSLSASVGDRVTITCRASQGISTYLAWLQQKPGKAPKSLIYATSSLQSGVPSKFSGSRSGTDFTLTISSLQPEDFATYYCQQYKSSPLTFGGGTKVEIK
notes: as for B1
B3: H2M591N (antibody, V domains shown)
VH: EVQLLESGGGLVQPGGSLRLSCATSGFTFSRYTMTWVRQAPGKGLFWVSGIGGSGGRAYYADSVKGRFTLSRDNSKNTLYLQMNSLRAEDTAVYYCAKEGDSGYDLDYWGRGTLVTVSS
VL: DIQMTQYPSSLSASVGDRVTITCRARQGISNYLAWLQQKPGKAPKSLIYAASSLQRGVPSKFSGSGSGTDFTLTISSLQPEDSATYYCQQYKISPLTFGGGTKVEIK
notes: as for B1
B4: H2M589N (antibody, V domains shown)
VH: EVQLLESGGGLVQPGGSLRLSCATSGFTFSRYTMTWVRQAPGKGLFWVSGIGGSGGRAYYADSVKGRFTLSRDNSKNTLYLQMNSLRAEDTAVYYCAKEGDSGYDLDYWGRGTLVTVSS
VL: DIQMTQYPSSLSASVGDRVTITCRARQGISNYLAWLQQKPGKAPKSLIYAASSLQRGVPSKFSGSGSGTDFTLTISSLQPEDSATYYCQQYKISPLTFGGGTKVEIK
notes: as for B1
B5: H1M590N (antibody, V domains shown)
VH: EVQLVESGGGLVQPGRSLRLSCAASGFTFDDYAMHWVRQAPGKGLEWVSGITWNSGTMAYADSVKGRFTISRDNAKNSLYLQMNSLRAEDTALYYCAKENWAFDYWGQGTLVTVSS
VL: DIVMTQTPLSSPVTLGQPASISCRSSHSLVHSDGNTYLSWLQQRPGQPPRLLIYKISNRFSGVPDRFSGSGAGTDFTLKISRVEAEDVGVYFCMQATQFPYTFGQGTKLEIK
notes: as for B1

Legend:
[1] = molecular target: T1, Peptide A (human PAR-2), unbiotinylated; assay: peptide ELISA
Protocol: (§1) Anti-PAR-2 antibodies were tested for their ability to bind to the PAR-2 peptides. Various PAR-2 Peptides (Table 3) were coated onto 96-well plates at a concentration of 2 μg/ml and incubated overnight followed by blocking in a suitable blocking agent for one hour. […] Purified anti-PAR-2 antibodies were added to the plate coated with PAR-2 peptides to a final concentration ranging from 0.2 to 2.0 μg/ml and incubated for one hour at room temperature. Detection of bound antibodies was determined with Horse-Radish Peroxidase (HRP) conjugated anti-mouse or human IgG (Jackson Immuno Research Lab, West Grove, Pa.) and developed by standard colorimetric response using tetramethylbenzidine (TMB) substrate. Absorbance was read at OD₄₅₀ for 0.1 second.

[2] = molecular target: T2, Peptide A (human PAR-2), N-terminal …; assay: peptide ELISA
Protocol: as §1

[3] = molecular target: T8, Peptide A (human PAR-2), C-terminal biotinylated (Human, C-terminal biotin via G4S linker); assay: peptide ELISA
T8 construct: also called Peptide A C-Term
Protocol: as §1

[4] = molecular target: T3, Peptide B (human PAR-2), unbiotinylated; assay: peptide ELISA
Protocol: as §1

[5] = molecular target: T4, Peptide B (human PAR-2), N-terminal …; assay: peptide ELISA
Protocol: as §1

[6] = molecular target: T5, Peptide B (human PAR-2), C-terminal …; assay: peptide ELISA
Protocol: as §1

[7] = molecular target: T6, Peptide C (human PAR-2), N-terminal …; assay: peptide ELISA
Protocol: as §1

[8] = molecular target: T7, Peptide C (human PAR-2), C-terminal …; assay: peptide ELISA
Protocol: as §1

[9] = molecular target: T1, Peptide A (human PAR-2), unbiotinylated; assay: SPR, antibody captured
Protocol: (§2) Equilibrium dissociation constants (KD values) for antigen binding to selected purified PAR-2 antibodies were determined by surface kinetics using a real-time surface plasmon resonance biosensor assay. Antibody was captured on either a rabbit anti-mouse IgG polyclonal antibody (GE Healthcare, Piscataway, N.J.) surface or a goat anti-human IgG polyclonal antibody (Jackson Immuno Research Lab, West Grove, Pa.) surface created through direct amine chemical coupling to a BIACORE™ CM5 sensor chip to form a captured antibody surface. […] Antigen-antibody binding and dissociation were monitored in real time at room temperature. Kinetic analysis was performed to calculate KD and half-life of antigen/antibody complex dissociation (Table 10). For those antibodies where no T_{1/2} value is shown, steady state analysis was used to calculate the KD value. NB: no binding observed under current experimental conditions. ND: not determined.

[10] = molecular target: T3, Peptide B (human PAR-2), unbiotinylated; assay: SPR, antibody captured
Protocol: as §2

full length human PAR-2 [11] = molecular target: T9, full length human PAR-2 (human, UniProt P55085 26-397); assay: cell-based or functional assay
[12] = molecular target: T8, Peptide A (human PAR-2), C-terminal …; assay: SPR, peptide immobilized
Protocol: (§3) In another series of experiments, equilibrium dissociation constants (KD values) for purified antibody binding to selected biotinylated and unbiotinylated forms of PAR-2 peptides were determined by surface kinetics using a real-time surface plasmon resonance biosensor assay. Neutravidin (Pierce, Rockford, Ill.) was covalently coupled to the surface of a Biacore™ C1 chip or CM5 chip using amine coupling chemistry. Biotinylated (N-Term or C-Term) PAR-2 peptides (Peptides A and B) were immobilized on the surface via the high affinity binding interaction between biotin and the amine coupled Neutravidin.
(§4) In a first experiment using this format, varying concentrations (ranging from 5 to 100 μg/ml) of purified antibody were injected at a rate of 50 μl/min over a surface coated with immobilized peptide at low-density (<1RU) for 300 seconds. Antibody-peptide binding and dissociation was monitored in real time 25° C.

[13] = molecular target: T5, Peptide B (human PAR-2), C-terminal …; assay: SPR, peptide immobilized
Protocol: as §3, §4

full length human PAR-2 [14] = molecular target: T9, full length human PAR-2; assay: cell ELISA, 10 ug/ml antibody
Text: HEK293 cells were transfected with an NF-κB-luciferase-IRES-eGFP reporter plasmid. […] A clonal cell line, named D9, having low background levels of luciferase activity and high levels of eGFP when induced with IL-1β was made by a series of successive sorts of cell populations using flow cytometry. The 293/D9 cell line was then separately transfected with human PAR-2 or mouse PAR-2 to create the stable cell lines 293/D9/h PAR-2rec and 293/D9/m PAR-2rec, respectively.
Binding of anti-PAR-2 antibodies to 293/D9/hPAR-2rec cells was determined by ELISA. 293/D9 and 293/D9/hPAR-2rec cells were plated at a density of 5×10⁴ cells/well in media and incubated overnight at 37° C. and 5% CO₂. Purified antibody was added to the cells to a final concentration of 10 μg/ml and incubated at room temperature for one hour. Cells were then fixed and washed before detection of bound antibodies with HRP conjugated anti-mouse IgG and developed by standard colorimetric response using TMB substrate. Absorbance was read at OD₄₅₀ for 0.1 second.

[15] = molecular target: T1, Peptide A (human PAR-2), unbiotinylated; assay: SPR, antibody captured, steady state
Protocol: as §2

T9 sequence (P55085 26-397 G138A limits assumed): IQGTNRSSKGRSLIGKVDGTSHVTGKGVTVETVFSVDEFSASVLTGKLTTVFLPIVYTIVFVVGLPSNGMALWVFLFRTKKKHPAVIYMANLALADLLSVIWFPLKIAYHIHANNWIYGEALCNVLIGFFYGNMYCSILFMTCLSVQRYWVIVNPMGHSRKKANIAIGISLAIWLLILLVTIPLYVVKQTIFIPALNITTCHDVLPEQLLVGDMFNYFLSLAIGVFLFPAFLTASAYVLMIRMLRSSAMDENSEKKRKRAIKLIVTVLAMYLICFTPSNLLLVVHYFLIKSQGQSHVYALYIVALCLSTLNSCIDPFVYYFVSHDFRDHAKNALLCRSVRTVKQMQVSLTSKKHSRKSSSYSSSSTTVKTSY

Binder	OD450 [1] [od]	OD450 [2] [od]	OD450 [3] [od]	OD450 [4] [od]	OD450 [5] [od]	OD450 [6] [od]	OD450 [7] [od]	OD450 [8] [od]	Kd [9] [nM]	T1/2 [9] [min]	Kd [10] [nM]	T1/2 [10] [min]	IC50, NF-kB-luciferase, 10 nM Human Trypsin 1 (full length human PAR-2 [11]) [nM]	IC50, NF-kB-luciferase, 10 nM Trypsin (full length human PAR-2 [11]) [nM]	IC50, NF-kB-luciferase, 20 nM Trypsin (full length human PAR-2 [11]) [nM]	IC50, NF-kB-luciferase, 75 nM Trypsin (full length human PAR-2 [11]) [nM]	IC50, NF-kB-luciferase, 250 nM Trypsin (full length human PAR-2 [11]) [nM]	Kd [12] [nM]	T1/2 [12] [min]	A450 ratio (293/D9/hPAR-2rec to 293/D9 cells) (full length human PAR-2 [14])	other results
B1	1 to 4	1 to 4	1 to 4	1 to 4	1 to 4	1 to 4	0 to 0.09	0 to 0.09	4.47	60.8	61.7	7.7	165	10.4	26.8	5.7	2.3	0.826	169	2.5	IC50, NF-kB-luciferase, 30 nM Trypsin (full length human PAR-2 [11]): 33 nM; IC50, NF-kB-luciferase, 200 nM Factor Xa (full length human PAR-2 [11]): 45.3 nM; IC50, NF-kB-luciferase, 750 nM Lung Tryptase (full length human PAR-2 [11]): 1 nM; Kd [13]: 1.49 nM; T1/2 [13]: 140 min
B2	1 to 4	1 to 4	1 to 4	1 to 4	1 to 4	1 to 4	0 to 0.09	0 to 0.09	9.62	6.7	126	3.5	154	12.4	70	7.8	6.6	1.8	79	2.44	IC50, NF-kB-luciferase, 200 nM Factor Xa (full length human PAR-2 [11]): 54.2 nM; IC50, NF-kB-luciferase, 750 nM Lung Tryptase (full length human PAR-2 [11]): 7 nM; Kd [13]: 2.32 nM; T1/2 [13]: 60 min
B3	1 to 4	1 to 4	1 to 4	1 to 4	1 to 4	1 to 4	0 to 0.09	0 to 0.09	4.22	42.7	151	8.1	150	24.2	122	–	4.5	0.545	209	2.25	IC50, NF-kB-luciferase, 200 nM Factor Xa (full length human PAR-2 [11]): 51.5 nM; IC50, NF-kB-luciferase, 750 nM Lung Tryptase (full length human PAR-2 [11]): 88.1 nM; Kd [13]: 1.82 nM; T1/2 [13]: 94 min
B4	1 to 4	1 to 4	1 to 4	1 to 4	1 to 4	1 to 4	0 to 0.09	0 to 0.09	3.75	51.3	128	7.3	–	–	–	3.7	6.3	–	–	2.03	–
B5	1 to 4	1 to 4	1 to 4	0 to 0.09	0 to 0.09	0 to 0.09	0 to 0.09	0 to 0.09	–	–	–	–	–	–	–	–	–	1.27	13	1.81	binding result [13]: no binding (tested: 5 to 100 ug/ml antibody); Kd [15]: 173 nM
